Laboratory results reported in the supplement of paper PMC10567573.

B1: PTPLAD1 (parent)
chain: YINFRHLYKQRRRRYGQKKKKIH
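Also: lentivirally expressed fusions sorted by FACS into six bins by GFP to DsRed ratio, PSI derived from sequencing read proportions per bin multiplied by bin number.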

Variants of: B1
Experiment: protein stability index of a GFP-peptide fusion (GPS, HEK-293T) (PSI 1-6); higher = more stable
Details: c terminus: native
R13Q showed a protein stability index of 1.91.
R13Y gave a protein stability index of 2.28.
Work on R13F yielded a protein stability index of 2.49.
With R13A the protein stability index was 1.7.
Work on R13K yielded a protein stability index of 1.45.
Variant R13G has a protein stability index of 1.41.
Variant R13H has a protein stability index of 2.4.
R13L gave a protein stability index of 2.3.
Variant R13E has a protein stability index of 2.09.
Variant R13P has a protein stability index of 3.64.
In the case of R13I, the protein stability index is reported as 1.9.
With R13T the protein stability index was 1.75.
Work on R13S yielded a protein stability index of 1.41.
In the case of R13N, the protein stability index is reported as 1.25.
With R13D the protein stability index was 1.37.
Variant R13V has a protein stability index of 2.13.
For Y15M, the protein stability index was 1.37.
Variant Y15A has a protein stability index of 2.12.
Work on Y15T yielded a protein stability index of 1.69.
With Y15E the protein stability index was 4.57.
Variant Y15N has a protein stability index of 1.11.
With Y15S the protein stability index was 1.74.
In the case of Y15K, the protein stability index is reported as 2.33.
Y15I gave a protein stability index of 2.11.
Work on Y15W yielded a protein stability index of 2.59.
Y15Q showed a protein stability index of 1.88.
Y15D showed a protein stability index of 2.48.
Y15V gave a protein stability index of 2.14.
Y15L gave a protein stability index of 2.
For Y15R, the protein stability index was 2.85.
Y15C showed a protein stability index of 2.22.
Y15G showed a protein stability index of 2.14.
Y15F gave a protein stability index of 1.53.
Variant Y15H has a protein stability index of 1.72.
L7Y showed a protein stability index of 2.29.
Work on L7R yielded a protein stability index of 2.77.
In the case of L7T, the protein stability index is reported as 2.26.
In the case of L7V, the protein stability index is reported as 2.93.
L7P gave a protein stability index of 2.92.
With L7S the protein stability index was 2.04.
L7Q showed a protein stability index of 2.24.
With Q10F the protein stability index was 2.15.
For Q10C, the protein stability index was 2.22.
Work on Q10M yielded a protein stability index of 1.96.
Variant Q10I has a protein stability index of 1.3.
Variant Q10H has a protein stability index of 2.27.
In the case of Q10W, the protein stability index is reported as 1.8.
Variant Q10S has a protein stability index of 1.7.
Work on Q10K yielded a protein stability index of 2.
Q10Y showed a protein stability index of 2.06.
With Q10P the protein stability index was 1.66.
For Q10V, the protein stability index was 1.47.
Q10L gave a protein stability index of 2.14.
Q10T gave a protein stability index of 2.29.
Variant Q10G has a protein stability index of 1.92.
Variant Q10D has a protein stability index of 1.88.
With Q10E the protein stability index was 1.96.
Q10A showed a protein stability index of 2.59.
Q10R showed a protein stability index of 2.26.
Work on R12M yielded a protein stability index of 2.44.
In the case of R12T, the protein stability index is reported as 3.06.
In the case of R12C, the protein stability index is reported as 1.55.
In the case of R12Q, the protein stability index is reported as 2.26.
R12W gave a protein stability index of 2.15.
Variant R12L has a protein stability index of 1.25.
Work on R12D yielded a protein stability index of 2.24.
With R12S the protein stability index was 2.18.
R12H showed a protein stability index of 1.93.
With R12E the protein stability index was 1.58.
For R12F, the protein stability index was 1.62.
Work on R12P yielded a protein stability index of 1.96.
R12G gave a protein stability index of 2.92.
R12V showed a protein stability index of 3.11.
R12A gave a protein stability index of 1.44.
R12Y gave a protein stability index of 2.01.
Variant R12I has a protein stability index of 2.44.
Variant R12N has a protein stability index of 2.05.
Work on R12K yielded a protein stability index of 1.91.
With Y8I the protein stability index was 1.56.
Work on Y8W yielded a protein stability index of 2.9.
Y8T gave a protein stability index of 1.76.
With Y8L the protein stability index was 1.76.
For Y8S, the protein stability index was 1.95.
In the case of Y8G, the protein stability index is reported as 2.03.
Y8R showed a protein stability index of 2.2.
In the case of Y8E, the protein stability index is reported as 2.18.
Variant Y8C has a protein stability index of 2.01.
With Y8A the protein stability index was 2.52.
In the case of Y8P, the protein stability index is reported as 2.81.
With Y8D the protein stability index was 3.25.
Y8H showed a protein stability index of 2.31.
In the case of Y8K, the protein stability index is reported as 2.5.
Work on Y8N yielded a protein stability index of 2.72.
For Q17L, the protein stability index was 2.07.
For Q17C, the protein stability index was 1.48.
For Q17H, the protein stability index was 1.72.
For Q17A, the protein stability index was 2.66.
Q17D showed a protein stability index of 2.23.
Q17E gave a protein stability index of 2.55.
Q17K gave a protein stability index of 1.76.
Q17G gave a protein stability index of 2.25.
Q17F gave a protein stability index of 2.3.
For G16M, the protein stability index was 2.27.
For G16K, the protein stability index was 2.57.
G16F gave a protein stability index of 1.6.
In the case of G16I, the protein stability index is reported as 2.21.
G16Q gave a protein stability index of 1.56.
Work on G16H yielded a protein stability index of 1.35.
Work on G16T yielded a protein stability index of 2.88.
In the case of G16P, the protein stability index is reported as 1.66.
In the case of G16L, the protein stability index is reported as 2.23.
G16W showed a protein stability index of 2.76.
Work on G16R yielded a protein stability index of 1.74.
G16A showed a protein stability index of 2.54.
Work on G16E yielded a protein stability index of 1.85.
Work on G16Y yielded a protein stability index of 1.25.
Work on G16V yielded a protein stability index of 2.44.
G16N showed a protein stability index of 1.4.
With G16D the protein stability index was 2.6.
For G16C, the protein stability index was 2.27.
For G16S, the protein stability index was 2.71.
In the case of R11K, the protein stability index is reported as 1.65.
Work on R11F yielded a protein stability index of 1.73.
With R11C the protein stability index was 1.58.
Work on R11Y yielded a protein stability index of 2.61.
Work on R11N yielded a protein stability index of 2.91.
In the case of R11Q, the protein stability index is reported as 2.37.
In the case of R11L, the protein stability index is reported as 1.61.
Work on R11S yielded a protein stability index of 2.3.
Variant R11A has a protein stability index of 1.72.
R11G showed a protein stability index of 2.54.
Variant R11T has a protein stability index of 2.02.
Work on R11D yielded a protein stability index of 1.39.
Variant R11P has a protein stability index of 2.84.
Variant R11H has a protein stability index of 2.15.
R11M gave a protein stability index of 1.32.
K9R gave a protein stability index of 3.03.
With K9N the protein stability index was 2.8.
Work on K9Q yielded a protein stability index of 1.92.
For K9V, the protein stability index was 1.91.
For K9H, the protein stability index was 2.17.
With K9S the protein stability index was 2.6.
Work on K9I yielded a protein stability index of 2.26.
Work on K9P yielded a protein stability index of 2.27.
For K9L, the protein stability index was 1.55.
For K9G, the protein stability index was 1.95.
Work on K9E yielded a protein stability index of 2.03.
With K9D the protein stability index was 3.3.
In the case of K9C, the protein stability index is reported as 1.83.
Variant K9Y has a protein stability index of 2.6.
Variant K9W has a protein stability index of 2.45.
For K9T, the protein stability index was 2.12.
K9A showed a protein stability index of 3.21.
Work on R14A yielded a protein stability index of 2.57.
Variant R14G has a protein stability index of 2.47.
For R14Y, the protein stability index was 1.78.
For R14L, the protein stability index was 2.34.
R14S gave a protein stability index of 1.85.
R14V showed a protein stability index of 2.14.
R14E showed a protein stability index of 1.78.
Variant R14P has a protein stability index of 2.05.
Work on R14K yielded a protein stability index of 2.22.
R14H showed a protein stability index of 1.96.
In the case of R14F, the protein stability index is reported as 2.16.
In the case of R14I, the protein stability index is reported as 1.6.
R14T gave a protein stability index of 1.22.
For R14N, the protein stability index was 2.15.
